Experimental data reported in patent US7201905B2, “Bi-functional cancer treatment agents” (Greenville Hospital System, priority 2001, dated 2007).

Experiments:
[1] = test system: L-1210 tumor cells; conditions: inhibiting cell growth and differentiation, read-out: IC50, cytotoxic effects against L-1210 tumor cells; cited from earlier work
[2] = test system: STAT5 phosphorylation in T-47D human breast cancer cells; assay: STAT 5 phosphorylation/immunoprecipitation assay; assay type: cell-based; conditions: T-47D cells, 30 min incubation, anti-phosphotyrosine blot
Protocol: T-47D cells are grown in RPMI-1640 medium containing 10% Charcoal Stripped Fetal Bovine Serum (CSFBS; growth medium). For each experiment, cells are passed into 6 well culture plates in growth medium till reach 90% confluence. On the day of the experiment, cells are depleted in serum free media for one hour and incubated in hPRL, hPRL-G129R or combination of two for 30 min. After treatment, T47-D cells are washed once with ice cold PBS and collected by gentle scraping in 1 ml ice cold lysis buffer [20 mM Tris-Cl (pH 7.4), 100 mM NaCl, 2 mM EDTA, 1% NP-40, 1 mM phenylmethylsulfonyl fluoride, 10 ug/ml aprotinin, 10 ug/ml leupeptin]. The lysis mixture is then passed through a 22 gauge needle several times avoiding air bubbles and spin at maximum speed for 20 minutes. The supernatant is then transferred to a new microcentrifuge tube. Five μg of STAT5 monoclonal antibody is then added to 100 microliters (200–500 micrograms total protein) of cell lysate along with 400 microliters of ddH20 and 500 microliters of 2×IP buffer [1% Triton X-100, 150 mM NaCl, 10 mM Tris pH 7.4, 1 mM EDTA, 1 mM EGTA, 0.2 mM sodium vanadate, 0.2 mM PMSF, 0.5% NP-40] to each reaction. After overnight incubation at 4° C. and gentle rotation, 50 microliters of prewashed (1×IP buffer) protein A agarose beads are added to each IP reaction and continue the Incubation for another 2 hours at 4C. […]

[3] = test system: T-47D human breast cancer cells; assay: T-47D co-culture method with L cells (FIG. 3); assay type: cell-based; conditions: co-cultured with L-PRL or L-hPRL-G129R cells, dose-response
Excerpt: The x-axis represents the co-cultured L cell (control, L-PRL or L-hPRL-G129R cell numbers. Each data point represents a mean of at least three independent experiments with triplicate wells.

[4] = test system: T-47D human breast cancer cells; assay: T-47D human breast cancer cell proliferation assay (FIG. 4); assay type: cell-based
Excerpt: The x-axis represents the hPRL-G129R concentration either in the absence (open bars) or presence of 4-OH-Tamoxifen. Each data point represents a mean of at least three independent experiments with triplicate wells.

## COc1ccc2c(c[n+](C)c3c4cc5c(cc4ccc23)OCO5)c1OC [chelerythrine, 1,2-dimethoxy-12-methyl[1,3]benzodioxolo[5,6-c]phenanthridinium]
[1]
  IC50: 53 nM

B1: hPRL-G129R: human prolactin with substitution of Gly to Arg at position 129 (SEQ ID NO: 34), hPRLR antagonist (protein)
chain: LPICPGGAARCQVTLRDLFDRAVVLSHYIHNLSSEMFSEFDKRYTHGRGFITKAINSCHTSSLATPEDKEQAQQMNQKDFLSLIVSILRSWNEPLYHLVTEVRGMQEAPEAILSKAVEIEEQTKRLLEGMELIVSQVHPETKENEIYPVWSGLPSLQMADEESRLSAYYNLLHCLRRDSHKIDNYLKLLKCRIIHNNNC
[2]
  block of signal transduction (STAT5 phosphorylation) induced by hPRL: able to block the signal transduction induced by hPRL
[3]
  effect on T-47D cells, co-culture method: dose-response inhibitory effects
[4]; hPRL-G129R alone, dose-response
  effect on T-47D cell proliferation: dose-response inhibitory effects
[4]; in presence of 4-OH-Tamoxifen
  effect on T-47D cell proliferation in combination: additive effects with 4-OH-Tamoxifen

B2: hPRL: human prolactin (protein)
chain: B1 chain
[3]
  effect on T-47D cells, co-culture method: stimulatory effects
